“And” between values parts separate entries of the source, which are not always exact repeats. Identical values can stand only once.
Tests used:
[1] = molecular target: hepatitis B virus (HBV) capsid protein (hepatitis B virus) (UniProt P03146); experiment: native MS
native MS = molecular target: the molecule itself; experiment: native MS

Molecule | stoichiometry N [1] | binding result (native MS)
hepatitis B virus (HBV) capsid protein (from UniProt P03146 1-183) (natural protein) | 240 and 180 | 
cholera toxin B (natural protein, also called CTB) TPQNITDLCAEYHNTQIYTLNDKIFSYTESLAGKREMAIITFKNGAIFQVEVPGSQHIDSQKKAIERMKDTLRIAYLTEAKVEKLCVWNNKTPHAIAAISMAN |  | binds

Source: PMC13054468 (Analytical chemistry, 2025)
